Source: paper PMC6224610, “Structural basis for the recognition of sulfur in phosphorothioated DNA” (Nature Communications, 2018)

Columns and labels:
[1] = system: ScoMcrA-SBD R117K (Streptomyces coelicolor); assay: fluorescence polarization; conditions: phosphorothioate G(PS)GCC, EMSA: 20 mM Tris-HCl pH 8.5, 200 mM NaCl, 1 mM DTT, 5% glycerol, 4 C, 30 min, FP: 20 mM Tris pH 8.0, 50 mM NaCl, room temperature, 5 nM …
ScoMcrA-SBD [2] = molecular target: T1, ScoMcrA-SBD (Streptomyces coelicolor, UniProt Q9L0M9 91-260); assay: fluorescence polarization; conditions: phosphorothioate G(PS)GCC, EMSA: 20 mM Tris-HCl pH 8.5, 200 mM NaCl, 1 mM DTT, 5% glycerol, 4 C, 30 min, FP: 20 mM Tris pH 8.0, 50 mM NaCl, room temperature, 5 nM …
T1 sequence: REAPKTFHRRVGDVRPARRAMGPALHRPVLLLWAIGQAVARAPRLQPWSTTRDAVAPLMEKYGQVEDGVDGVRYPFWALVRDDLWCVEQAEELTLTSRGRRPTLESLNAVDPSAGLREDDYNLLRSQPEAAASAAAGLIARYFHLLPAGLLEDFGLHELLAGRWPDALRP

[3] = system: ScoMcrA-SBD R190A (Streptomyces coelicolor); assay: EMSA; conditions: Rp phosphorothioate G(PS)GCC, both strands, EMSA: 20 mM Tris-HCl pH 8.5, 200 mM NaCl, 1 mM DTT, 5% glycerol, 4 C, 30 min, FP: 20 mM Tris pH 8.0, 50 mM NaCl, room temperature, 5 nM …
[4] = system: ScoMcrA-SBD Y164I (Streptomyces coelicolor); assay: EMSA; conditions: Rp phosphorothioate G(PS)GCC, both strands, EMSA: 20 mM Tris-HCl pH 8.5, 200 mM NaCl, 1 mM DTT, 5% glycerol, 4 C, 30 min, FP: 20 mM Tris pH 8.0, 50 mM NaCl, room temperature, 5 nM …
[5] = system: ScoMcrA-SBD A168I (Streptomyces coelicolor); assay: EMSA; conditions: Rp phosphorothioate G(PS)GCC, both strands, EMSA: 20 mM Tris-HCl pH 8.5, 200 mM NaCl, 1 mM DTT, 5% glycerol, 4 C, 30 min, FP: 20 mM Tris pH 8.0, 50 mM NaCl, room temperature, 5 nM …
[6] = system: ScoMcrA-SBD Y164F (Streptomyces coelicolor); assay: EMSA; conditions: Rp phosphorothioate G(PS)GCC, both strands, EMSA: 20 mM Tris-HCl pH 8.5, 200 mM NaCl, 1 mM DTT, 5% glycerol, 4 C, 30 min, FP: 20 mM Tris pH 8.0, 50 mM NaCl, room temperature, 5 nM …
[7] = system: ScoMcrA-SBD H116I (Streptomyces coelicolor); assay: EMSA; conditions: Rp phosphorothioate G(PS)GCC, both strands, EMSA: 20 mM Tris-HCl pH 8.5, 200 mM NaCl, 1 mM DTT, 5% glycerol, 4 C, 30 min, FP: 20 mM Tris pH 8.0, 50 mM NaCl, room temperature, 5 nM …
[8] = system: ScoMcrA-SBD S187A (Streptomyces coelicolor); assay: EMSA; conditions: Rp phosphorothioate G(PS)GCC, both strands, EMSA: 20 mM Tris-HCl pH 8.5, 200 mM NaCl, 1 mM DTT, 5% glycerol, 4 C, 30 min, FP: 20 mM Tris pH 8.0, 50 mM NaCl, room temperature, 5 nM …
[9] = system: ScoMcrA-SBD R191A (Streptomyces coelicolor); assay: EMSA; conditions: Rp phosphorothioate G(PS)GCC, both strands, EMSA: 20 mM Tris-HCl pH 8.5, 200 mM NaCl, 1 mM DTT, 5% glycerol, 4 C, 30 min, FP: 20 mM Tris pH 8.0, 50 mM NaCl, room temperature, 5 nM …
[10] = molecular target: the molecule itself; assay: crystal structure; ScoMcrA-SBD-SRA (91-442) with 10 bp Rp PT-DNA, 3.30 Å, space group I4122; the two protomers are related by the crystallographic two-fold rotation axis
ScoMcrA-SBD [11] = molecular target: T1, ScoMcrA-SBD; assay: crystal structure (1.70 A); EMSA: 20 mM Tris-HCl pH 8.5, 200 mM NaCl, 1 mM DTT, 5% glycerol, 4 C, 30 min; FP: 20 mM Tris pH 8.0, 50 mM NaCl, 1 mM DTT, 5% glycerol, room temperature, 5 nM FAM-DNA; conditions: protein: recombinant; tags: MBP tag removed by TEV; blunt
ScoMcrA FL = molecular target: T2, ScoMcrA FL (Streptomyces coelicolor, UniProt Q9L0M9 1-560); assay: EMSA; EMSA: 20 mM Tris-HCl pH 8.5, 200 mM NaCl, 1 mM DTT, 5% glycerol, 4 C, 30 min; FP: 20 mM Tris pH 8.0, 50 mM NaCl, 1 mM DTT, 5% glycerol, room temperature, 5 nM FAM-DNA; conditions: protein: recombinant; tags: MBP tag removed by TEV; chain copies: 2; blunt
T2 sequence: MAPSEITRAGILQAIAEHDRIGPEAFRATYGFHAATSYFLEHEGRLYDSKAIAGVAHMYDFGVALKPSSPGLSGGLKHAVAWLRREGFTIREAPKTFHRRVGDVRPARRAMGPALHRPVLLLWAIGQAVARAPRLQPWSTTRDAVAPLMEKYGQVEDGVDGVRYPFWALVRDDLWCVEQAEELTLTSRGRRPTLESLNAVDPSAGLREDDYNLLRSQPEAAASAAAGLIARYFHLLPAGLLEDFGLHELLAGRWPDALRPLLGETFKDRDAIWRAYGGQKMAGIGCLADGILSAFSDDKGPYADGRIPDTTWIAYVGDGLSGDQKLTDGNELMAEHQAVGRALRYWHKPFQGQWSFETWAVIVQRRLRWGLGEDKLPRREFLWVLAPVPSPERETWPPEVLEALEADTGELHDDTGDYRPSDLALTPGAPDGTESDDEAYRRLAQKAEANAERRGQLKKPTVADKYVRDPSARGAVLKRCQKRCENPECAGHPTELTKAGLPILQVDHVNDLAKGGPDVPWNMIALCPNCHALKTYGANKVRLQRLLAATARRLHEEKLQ

ScoMcrA-SBD [12] = molecular target: T1, ScoMcrA-SBD; assay: as above; conditions: protein: recombinant; tags: MBP tag removed by TEV; blunt
[13] = molecular target: the molecule itself; assay: crystal structure; full-length ScoMcrA alone, 3.15 Å, space group P212121, six molecules in each asymmetric unit
ScoMcrA-SBD-SRA = molecular target: T3, ScoMcrA-SBD-SRA (Streptomyces coelicolor, UniProt Q9L0M9 91-442); assay: crystal structure (3.30 A); EMSA: 20 mM Tris-HCl pH 8.5, 200 mM NaCl, 1 mM DTT, 5% glycerol, 4 C, 30 min; FP: 20 mM Tris pH 8.0, 50 mM NaCl, 1 mM DTT, 5% glycerol, room temperature, 5 nM FAM-DNA; conditions: protein: recombinant; tags: MBP tag removed by TEV; chain copies: 2; blunt
T3 sequence: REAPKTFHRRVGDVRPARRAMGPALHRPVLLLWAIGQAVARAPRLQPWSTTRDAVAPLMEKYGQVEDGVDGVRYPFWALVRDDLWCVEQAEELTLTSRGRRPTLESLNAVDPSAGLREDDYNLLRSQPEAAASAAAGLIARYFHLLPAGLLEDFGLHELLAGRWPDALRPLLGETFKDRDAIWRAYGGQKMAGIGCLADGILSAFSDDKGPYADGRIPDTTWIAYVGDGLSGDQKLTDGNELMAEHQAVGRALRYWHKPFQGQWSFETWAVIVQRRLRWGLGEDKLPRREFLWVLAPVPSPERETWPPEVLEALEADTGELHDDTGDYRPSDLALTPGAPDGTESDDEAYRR

## 5-FAM PT-DNA, GGCC core (FP)
[1]
  Kd: 1550 nM
ScoMcrA-SBD [2]
  Kd: 1320 nM

## 5-FAM hemi-PT-DNA (FP)
ScoMcrA-SBD [2]; one strand
  Kd: 1470 nM

## Rp PT-DNA, GGCC core (EMSA)
[3]
  binding signal (% reduction vs WT): 82
[4]
  binding signal (% reduction vs WT): 89
[5]
  binding signal (% reduction vs WT): 51
[6]
  binding signal (% reduction vs WT): 65
[7]
  binding signal (% reduction vs WT): 94
[8]
  binding signal (% reduction vs WT): 38
[9]
  binding signal (% reduction vs WT): 72

B1: SBD-SRA domains of ScoMcrA (residues 91-442) (domain or fragment, Streptomyces coelicolor, UniProt Q9L0M9 91-442, looked up)
chain: T3 sequence
notes: ScoMcrA (ScoA3McrA), Streptomyces coelicolor, SBD-SRA domains, residues 91-442; Crystallised in complex with a 10 bp Rp PT-DNA; the dimer is formed by a crystallographic two-fold axis; also called ScoMcrA-SBD-SRA; source: E. coli BL21(DE3), purified (HisTrap, TEV cleavage, heparin, Source 15Q, Superdex 200)
[10]
  stoichiometry N: 2

B2: GGCC8 Rp (dsDNA)
DNA 1: CCGGCCGG
DNA 2: CCGGCCGG
modifications: Rp phosphorothioate between G3 and G4, both strands
ScoMcrA-SBD [11]
  binding result: binds

B3: hemi-PT-DNA (S10hemi-S/U10hemi-A) (dsDNA)
DNA 1: CCCGGCCGCC
DNA 2: GGCGGCCGGG
modifications: Rp phosphorothioate between G4 and G5 of strand 1 only
ScoMcrA FL
  binding result: binds
ScoMcrA-SBD [12]
  binding result: binds

B4: full-length Streptomyces coelicolor ScoMcrA (ScoA3McrA), DNA phosphorothioation-dependent Type-IV restriction endonuclease (enzyme, UniProt Q9L0M9 1-560, looked up)
chain: T2 sequence
notes: ScoMcrA (ScoA3McrA), Streptomyces coelicolor, full length; head, SBD, SRA and HNH domains; the model reaches residue 560; The structure was phased by SAD with a selenomethionine derivative of the full-length protein; Cloned into pSJ8; also called FL ScoMcrA; source: E. coli BL21(DE3), purified (HisTrap, TEV cleavage, heparin, Source 15Q, Superdex 200)
[13]
  stoichiometry N: 2

B5: GGCC10 Rp (dsDNA)
DNA 1: CCCGGCCGGG
DNA 2: CCCGGCCGGG
modifications: Rp phosphorothioate between G4 and G5, both strands
ScoMcrA-SBD-SRA
  binding result: binds
